3 substances from US20240307536A1 can be followed below.

Holding throughout (assay): cell-based or functional assay
The target of experiment [1] is MHC class I on MV411 cells (human).
Experiment [2] deals with CXCR3 on SAK cells (human) (UniProt P49682).
Experiment [3] deals with CXCR2 on SAK cells (human) (UniProt P25025).
Sequence of UniProt P25025 (P25025 whole entry): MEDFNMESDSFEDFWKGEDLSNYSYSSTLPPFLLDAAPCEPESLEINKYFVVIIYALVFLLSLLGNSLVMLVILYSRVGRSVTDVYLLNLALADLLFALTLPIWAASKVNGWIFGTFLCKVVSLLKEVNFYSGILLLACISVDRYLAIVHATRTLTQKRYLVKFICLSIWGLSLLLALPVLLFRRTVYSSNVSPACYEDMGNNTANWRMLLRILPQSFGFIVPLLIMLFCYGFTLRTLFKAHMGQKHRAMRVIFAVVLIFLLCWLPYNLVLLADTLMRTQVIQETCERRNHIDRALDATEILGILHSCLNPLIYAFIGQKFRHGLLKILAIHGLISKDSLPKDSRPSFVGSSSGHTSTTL

Sequence of UniProt P49682 (P49682 whole entry): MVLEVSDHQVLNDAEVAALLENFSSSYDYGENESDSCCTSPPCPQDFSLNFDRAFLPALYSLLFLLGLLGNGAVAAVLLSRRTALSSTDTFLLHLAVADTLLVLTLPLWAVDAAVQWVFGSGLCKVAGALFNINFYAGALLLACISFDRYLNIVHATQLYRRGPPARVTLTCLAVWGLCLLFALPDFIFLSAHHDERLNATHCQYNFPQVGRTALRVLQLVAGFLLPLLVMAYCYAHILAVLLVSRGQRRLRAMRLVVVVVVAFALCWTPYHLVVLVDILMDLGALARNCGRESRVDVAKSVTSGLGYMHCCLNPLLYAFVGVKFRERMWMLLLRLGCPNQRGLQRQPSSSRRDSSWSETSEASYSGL

Take “anti-MHC I antibody (W6/32 clone, Biolegend)”: the cytotoxic activity of SAK cells against MV411 cells kept in the presence of 1 ug/ml anti-MHC I antibody, CFSE-based cytotoxicity assay in experiment [1] is more than 40%.
Turning to “IP-10 (PeproTech EC) (from UniProt P02778 22-98) (ligand)”, in experiment [2], the Transwell migration of SAK cells within four hours, percentage of the input cells (500 ng/ml IP-10) was 30%.
For “rhIL-8 (PeproTech EC) (from UniProt P10145 28-99) (ligand)”, the Transwell migration of SAK cells within four hours, percentage of the input cells (100 ng/mL IL-8) in experiment [3] was 3%.
